Measured values reported in article PMC6868441 (Nucleic Acids Research, 2019).

T1: ArlR full length (Staphylococcus aureus, UniProt Q9KJN4 1-219)
T1 sequence: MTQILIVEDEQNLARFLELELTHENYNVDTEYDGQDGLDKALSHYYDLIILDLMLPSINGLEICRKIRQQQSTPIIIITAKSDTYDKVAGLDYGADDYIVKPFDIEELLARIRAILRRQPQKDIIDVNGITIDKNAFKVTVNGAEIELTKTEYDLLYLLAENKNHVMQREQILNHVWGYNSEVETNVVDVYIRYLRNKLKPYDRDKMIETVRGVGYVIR

B1: ArlR-BdDNA-wt 24 bp (dsDNA)
DNA 1: TGATAGTATTTTAATTTGCAATAG
DNA 2: CTATTGCAAATTAAAATACTATCA
B2: Position 1,4&6 mutation 24 bp (dsDNA)
DNA 1: TGCTATTCTTTTAATTGGAAAGAG
DNA 2: CTCTTTCCAATTAAAAGAATAGCA
B3: ArlR receiver domain (amino acids 1–121) (domain or fragment, S. aureus, UniProt Q9KJN4 1-121, looked up)
chain: MTQILIVEDEQNLARFLELELTHENYNVDTEYDGQDGLDKALSHYYDLIILDLMLPSINGLEICRKIRQQQSTPIIIITAKSDTYDKVAGLDYGADDYIVKPFDIEELLARIRAILRRQPQ

Columns and labels:
[1] = target: T1, ArlR full length; assay: EMSA
[2] = target: the molecule itself; assay: SEC

Binder | binding result [1] | stoichiometry N [2]
B1 | binds | –
B2 | no binding | –
B3 | – | 2
